Reference: article PMC9922279

Biological target: Trimeric polymerase with PB2 71-73A (PB1 WT, PB2 71-73A, strep-tagged PA)
Details: parent: est. 1.0; read off a plot

Trimeric influenza A virus A/WSN/1933 (H1N1) polymerase (PB1 wild type, PB2, HA-tagged PA) (from UniProt P15659) PB2 71-73A
ratio to parent: 0.5 n-fold of WT
